In the Immune Epitope Database (IEDB):

Legend:
HLA-A*02:01 [1] = assay: IEDB peptide-MHC binding, purified MHC/competitive/fluorescence; ≥ and ≤ were set here for values at or beyond the usual limits of such assays; conditions: source organism: Zaire ebolavirus
HLA-B*07:02 [2] = assay: as above; conditions: source organism: Zaire ebolavirus
HLA-A*01:01 = assay: IEDB peptide-MHC binding, purified MHC/direct/fluorescence; filed as Kd, often an IC50 or EC50 that approximates it; ≥ and ≤ were set here for values at or beyond the usual limits of such assays
HLA-A*02:01 [3] = assay: as above
HLA-A*03:01 = assay: as above
HLA-A*24:02 = assay: as above
HLA-A*69:01 = assay: as above; conditions: source organism: Influenza A virus (A/England/627/01(H1N2))
HLA-B*07:02 [4] = assay: as above
HLA-B*08:01 = assay: as above; conditions: source organism: Influenza A virus (A/England/627/01(H1N2))
HLA-B*15:01 = assay: as above
HLA-B*27:05 = assay: as above
HLA-B*40:01 = assay: as above
HLA-B*44:02 = assay: as above
HLA-B*46:01 = assay: as above; conditions: source organism: Influenza A virus (A/England/627/01(H1N2))
HLA-B*58:01 = assay: as above
HLA-A*29:02 = assay: IEDB peptide-MHC binding, purified MHC/competitive/fluorescence; filed as Kd, often an IC50 or EC50 that approximates it; ≥ and ≤ were set here for values at or beyond the usual limits of such assays; conditions: source organism: Campylobacter jejuni subsp. jejuni NCTC 11168 = ATCC 700819
HLA-A*11:01 = assay: IEDB peptide-MHC binding, purified MHC/direct/fluorescence; filed as Kd, often an IC50 or EC50 that approximates it; ≥ and ≤ were set here for values at or beyond the usual limits of such assays; conditions: source organism: Escherichia coli O157:H7
HLA-A*31:01 = assay: as above; conditions: source organism: Escherichia coli O157:H7
HLA-B*18:01 = assay: as above; conditions: source organism: Escherichia coli O157:H7
[5] = source organism: Influenza A virus (A/England/627/01(H1N2))
[6] = source organism: Influenza A virus (A/Puerto Rico/8/34/Mount Sinai(H1N1))
[7] = source organism: Escherichia coli O157:H7

RTRREAIVN
≥ 92.6 µM: IC50 (HLA-B*07:02 [2])
≥ 119 µM: IC50 (HLA-A*02:01 [1])

KMARLGKGY
0.252 µM: Kd (HLA-A*03:01; [6])
0.178 µM: Kd (HLA-B*15:01; [6])
0.379 µM: Kd (HLA-B*27:05; [6])
≥ 20 µM: Kd (HLA-A*01:01; [5]) | Kd (HLA-A*02:01 [3]; [5]) | Kd (HLA-A*24:02; [5]) | Kd (HLA-A*69:01) | Kd (HLA-B*07:02 [4]; [5]) | Kd (HLA-B*08:01) | Kd (HLA-B*40:01; [5]) | Kd (HLA-B*44:02; [5]) | Kd (HLA-B*46:01) | Kd (HLA-B*58:01; [5])

LYAYWYHLY
0.0008 µM: Kd (HLA-A*29:02)

LLKLWIDKV
0.0367 µM: Kd (HLA-A*02:01 [3]; [7])
≥ 20 µM: Kd (HLA-A*01:01; [7]) | Kd (HLA-A*03:01; [7]) | Kd (HLA-A*11:01) | Kd (HLA-A*24:02; [7]) | Kd (HLA-A*31:01) | Kd (HLA-B*07:02 [4]; [7]) | Kd (HLA-B*15:01; [7]) | Kd (HLA-B*18:01) | Kd (HLA-B*27:05; [7]) | Kd (HLA-B*40:01; [7]) | Kd (HLA-B*44:02; [7]) | Kd (HLA-B*58:01; [7])
